Measured values taken from patent US20170112928A1.

Biological target: hTEM8-AP (human) (UniProt Q9H6X2)
Test: Biocore (SPR) affinity measurement of anti-TEM8 Fab

hTEM8-AP (human), sequence (Q9H6X2 33-321): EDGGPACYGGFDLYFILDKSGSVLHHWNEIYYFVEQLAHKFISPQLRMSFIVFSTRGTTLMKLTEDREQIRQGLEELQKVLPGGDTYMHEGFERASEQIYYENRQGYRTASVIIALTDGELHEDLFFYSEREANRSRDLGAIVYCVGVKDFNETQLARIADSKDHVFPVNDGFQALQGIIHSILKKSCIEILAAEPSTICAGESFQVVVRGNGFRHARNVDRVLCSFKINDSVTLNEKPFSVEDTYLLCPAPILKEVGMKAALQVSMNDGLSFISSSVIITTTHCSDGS

| Molecule | Kd [nM] | koff [s⁻¹] | kon [M⁻¹ s⁻¹] |
| --- | --- | --- | --- |
| M830 anti-TEM8 fragment antigen-binding (Fab) | 1.57 | 0.000953 | 607000 |
| M825 anti-TEM8 fragment antigen-binding (Fab) (Fab, V domains shown) VH: QVQLVQSGAEVKKPGTSVKVSCKVPGYTFSSYAISWVRQAPGQGLEWMGGIIPIFGTTNYAQKFQGRVTITGEESTSTVYMELSSLRSEDTAVYYCARDTDYMFDYWGQGTLVTVSS VL: SSELTQDPVVSVALGETVSITCQGDNLRDFYASWYQQKPGQAPLLVMYGKNRRPSGIPDRFSGSTSGNTLSLTITGAQAEDEADYYCSSRDNSKHVVFGGGTKVTVL | 0.0591 | 0.00018 | 3.05e+06 |
